No end group written: not given here.
Experiments:
[1] = molecular target: PACAP receptor in rat brain crude membrane (rat); assay: displacement of [^125 I]MAX from rat brain crude membranes
[2] = molecular target: PACAP receptor in rat brain crude membrane (rat); assay: displacement of [^125 I]PACAP 27 from rat brain crude membranes
[3] = molecular target: PACAP receptor in rat brain crude membrane (rat); assay: displacement of [^125 I]MAX and [^125 I]PACAP 27 from rat brain crude membranes; reference M65

Row | IC50 [1] [nM] | IC50 [2] [nM] | fold of IC50 against M65 [3] [times] | Molecule
1 | 235 | 1030 | – | FTDSYSRYRKQMAVKKYLAAVL-NH2 [PACAP 6-27 (SEQ ID NO: 7-NH2)]
2 | 8.35 | 39.1 | 6 to 10 | FTDSYSRYRKQMAVKKYLAAVLGKRYKQRVKNK-NH2 [PACAP 6-38 (SEQ ID NO: 6-NH2)]
3 | 2.16 | 9.55 | – | HSDGIFTDSYSRYRKQMAVKKYLAAVL-NH2 (ligand) [PACAP 27 (SEQ ID NO: 5-NH2)]
4 | 1.91 | 4.45 | – | HSDGIFTDSYSRYRKQMAVKKYLAAVLGKRYKQRVKNK-NH2 (ligand) [PACAP 38 (SEQ ID NO: 4-NH2)]

Row | Molecule | IC50 [1] [nM] | IC50 [2] [nM] | fold of IC50 against M65 [3] [times]
5 | M65 (SEQ ID NO: 3) (peptide) | 2.96 | 5.96 | –

Reference: patent US6017533
